According to paper PMC8298264, “Function of cofactor Akirin2 in the regulation of gene expression in model human neutrophil-like HL60 cells” (Bioscience Reports, 2021):

B1: Gc-globulin (protein, UniProt P02774 17-474, looked up)
Vitamin D-binding protein: LERGRDYEKNKVCKEFSHLGKEDFTSLSLVLYSRKFPSGTFEQVSQLVKEVVSLTEACCAEGADPDCYDTRTSALSAKSCESNSPFPVHPGTAECCTKEGLERKLCMAALKHQPQEFPTYVEPTNDEICEAFRKDPKEYANQFMWEYSTNYGQAPLSLLVSYTKSYLSMVGSCCTSASPTVCFLKERLQLKHLSLLTTLSNRVCSQYAAYGEKKSRLSNLIKLAQKVPTADLEDVLPLAEDITNILSKCCESASEDCMAKELPEHTVKLCDNLSTKNSKFEDCCQEKTAMDVFVCTYFMPAAQLPELPDVELPTNKDVCDPGNTKVMDKYTFELSRRTHLPEVFLSKVLEPTLKSLGECCDVEDSTTCFNAKGPLLKKELSSFIDKGQELCADYSENTFTEYKKKLAERLKAKLPDATPTELAKLVNKHSDFASNCCSINSPPLYCDSEIDAELKNIL
B2: sp¦Q9UK45¦LSM7_HUMAN (protein, UniProt Q9UK45 2-103, looked up)
U6 snRNA-associated Sm-like …: ADKEKKKKESILDLSKYIDKTIRVKFQGGREASGILKGFDPLLNLVLDGTIEYMRDPDDQYKLTEDTRQLGLVVCRGTSVVLICPQDGMEAIPNPFIQQQDA
B3: sp¦P21953¦ODBB_HUMAN (protein, UniProt P21953 51-392, looked up)
2-oxoisovalerate …: VAHFTFQPDPEPREYGQTQKMNLFQSVTSALDNSLAKDPTAVIFGEDVAFGGVFRCTVGLRDKYGKDRVFNTPLCEQGIVGFGIGIAVTGATAIAEIQFADYIFPAFDQIVNEAAKYRYRSGDLFNCGSLTIRSPWGCVGHGALYHSQSPEAFFAHCPGIKVVIPRSPFQAKGLLLSCIEDKNPCIFFEPKILYRAAAEEVPIEPYNIPLSQAEVIQEGSDVTLVAWGTQVHVIREVASMAKEKLGVSCEVIDLRTIIPWDVDTICKSVIKTGRLLISHEAPLTGGFASEISSTVQEECFLNLEAPISRVCGYDTPFPHIFEPFYIPDKWKCYDALRKMINY
B4: sp¦O75534¦CSDE1_HUMAN (protein, UniProt O75534 1-798, looked up)
Cold shock domain-containing …: MSFDPNLLHNNGHNGYPNGTSAALRETGVIEKLLTSYGFIQCSERQARLFFHCSQYNGNLQDLKVGDDVEFEVSSDRRTGKPIAVKLVKIKQEILPEERMNGQVVCAVPHNLESKSPAAPGQSPTGSVCYERNGEVFYLTYTPEDVEGNVQLETGDKINFVIDNNKHTGAVSARNIMLLKKKQARCQGVVCAMKEAFGFIERGDVVKEIFFHYSEFKGDLETLQPGDDVEFTIKDRNGKEVATDVRLLPQGTVIFEDISIEHFEGTVTKVIPKVPSKNQNDPLPGRIKVDFVIPKELPFGDKDTKSKVTLLEGDHVRFNISTDRRDKLERATNIEVLSNTFQFTNEAREMGVIAAMRDGFGFIKCVDRDVRMFFHFSEILDGNQLHIADEVEFTVVPDMLSAQRNHAIRIKKLPKGTVSFHSHSDHRFLGTVEKEATFSNPKTTSPNKGKEKEAEDGIIAYDDCGVKLTIAFQAKDVEGSTSPQIGDKVEFSISDKQRPGQQVATCVRLLGRNSNSKRLLGYVATLKDNFGFIETANHDKEIFFHYSEFSGDVDSLELGDMVEYSLSKGKGNKVSAEKVNKTHSVNGITEEADPTIYSGKVIRPLRSVDPTQTEYQGMIEIVEEGDMKGEVYPFGIVGMANKGDCLQKGESVKFQLCVLGQNAQTMAYNITPLRRATVECVKDQFGFINYEVGDSKKLFFHVKEVQDGIELQAGDEVEFSVILNQRTGKCSACNVWRVCEGPKAVAAPRPDRLVNRLKNITLDDASAPRLMVLRQPRGPDNSMGFGAERKIRQAGVID
B5: sp¦P37837¦TALDO_HUMAN (protein, UniProt P37837 1-337, looked up)
Transaldolase: MSSSPVKRQRMESALDQLKQFTTVVADTGDFHAIDEYKPQDATTNPSLILAAAQMPAYQELVEEAIAYGRKLGGSQEDQIKNAIDKLFVLFGAEILKKIPGRVSTEVDARLSFDKDAMVARARRLIELYKEAGISKDRILIKLSSTWEGIQAGKELEEQHGIHCNMTLLFSFAQAVACAEAGVTLISPFVGRILDWHVANTDKKSYEPLEDPGVKSVTKIYNYYKKFSYKTIVMGASFRNTGEIKALAGCDFLTISPKLLGELLQDNAKLVPVLSAKAAQASDLEKIHLDEKSFRWLHNEDQMAVEKLSDGIRKFAADAVKLERMLTERMFNAENGK
B6: sp¦Q9NPF4¦OSGEP_HUMAN (protein, UniProt Q9NPF4 1-335, looked up)
tRNA N6-adenosine …: MPAVLGFEGSANKIGVGVVRDGKVLANPRRTYVTPPGTGFLPGDTARHHRAVILDLLQEALTESGLTSQDIDCIAYTKGPGMGAPLVSVAVVARTVAQLWNKPLVGVNHCIGHIEMGRLITGATSPTVLYVSGGNTQVIAYSEHRYRIFGETIDIAVGNCLDRFARVLKISNDPSPGYNIEQMAKRGKKLVELPYTVKGMDVSFSGILSFIEDVAHRMLATGECTPEDLCFSLQETVFAMLVEITERAMAHCGSQEALIVGGVGCNVRLQEMMATMCQERGARLFATDERFCIDNGAMIAQAGWEMFRAGHRTPLSDSGVTQRYRTDEVEVTWRD
B7: sp¦P12236¦ADT3_HUMAN (protein, UniProt P12236 1-298, looked up)
ADP/ATP translocase 3: MTEQAISFAKDFLAGGIAAAISKTAVAPIERVKLLLQVQHASKQIAADKQYKGIVDCIVRIPKEQGVLSFWRGNLANVIRYFPTQALNFAFKDKYKQIFLGGVDKHTQFWRYFAGNLASGGAAGATSLCFVYPLDFARTRLAADVGKSGTEREFRGLGDCLVKITKSDGIRGLYQGFSVSVQGIIIYRAAYFGVYDTAKGMLPDPKNTHIVVSWMIAQTVTAVAGVVSYPFDTVRRRMMMQSGRKGADIMYTGTVDCWRKIFRDEGGKAFFKGAWSNVLRGMGGAFVLVLYDELKKVI
B8: sp¦Q9GZU8¦PIP30_HUMAN (protein, UniProt Q9GZU8 1-254, looked up)
PSME3-interacting protein: MDGGDDGNLIIKKRFVSEAELDERRKRRQEEWEKVRKPEDPEECPEEVYDPRSLYERLQEQKDRKQQEYEEQFKFKNMVRGLDEDETNFLDEVSRQQELIEKQRREEELKELKEYRNNLKKVGISQENKKEVEKKLTVKPIETKNKFSQAKLLAGAVKHKSSESGNSVKRLKPDPEPDDKNQEPSSCKSLGNTSLSGPSIHCPSAAVCIGILPGLGAYSGSSDSESSSDSEGTINATGKIVSSIFRTNTFLEAP
B9: sp¦P09429¦HMGB1_HUMAN (protein, UniProt P09429 1-215, looked up)
High mobility group protein B1: MGKGDPKKPRGKMSSYAFFVQTCREEHKKKHPDASVNFSEFSKKCSERWKTMSAKEKGKFEDMAKADKARYEREMKTYIPPKGETKKKFKDPNAPKRPPSAFFLFCSEYRPKIKGEHPGLSIGDVAKKLGEMWNNTAADDKQPYEKKAAKLKEKYEKDIAAYRAKGKPDAAKKGVVKAEKSKKKKEEEEDEEDEEDEEEEEDEEDEDEEEDDDDE
B10: sp¦P23921¦RIR1_HUMAN (protein, UniProt P23921 1-792, looked up)
Ribonucleoside-diphosphate …: MHVIKRDGRQERVMFDKITSRIQKLCYGLNMDFVDPAQITMKVIQGLYSGVTTVELDTLAAETAATLTTKHPDYAILAARIAVSNLHKETKKVFSDVMEDLYNYINPHNGKHSPMVAKSTLDIVLANKDRLNSAIIYDRDFSYNYFGFKTLERSYLLKINGKVAERPQHMLMRVSVGIHKEDIDAAIETYNLLSERWFTHASPTLFNAGTNRPQLSSCFLLSMKDDSIEGIYDTLKQCALISKSAGGIGVAVSCIRATGSYIAGTNGNSNGLVPMLRVYNNTARYVDQGGNKRPGAFAIYLEPWHLDIFEFLDLKKNTGKEEQRARDLFFALWIPDLFMKRVETNQDWSLMCPNECPGLDEVWGEEFEKLYASYEKQGRVRKVVKAQQLWYAIIESQTETGTPYMLYKDSCNRKSNQQNLGTIKCSNLCTEIVEYTSKDEVAVCNLASLALNMYVTSEHTYDFKKLAEVTKVVVRNLNKIIDINYYPVPEACLSNKRHRPIGIGVQGLADAFILMRYPFESAEAQLLNKQIFETIYYGALEASCDLAKEQGPYETYEGSPVSKGILQYDMWNVTPTDLWDWKVLKEKIAKYGIRNSLLIAPMPTASTAQILGNNESIEPYTSNIYTRRVLSGEFQIVNPHLLKDLTERGLWHEEMKNQIIACNGSIQSIPEIPDDLKQLYKTVWEISQKTVLKMAAERGAFIDQSQSLNIHIAEPNYGKLTSMHFYGWKQGLKTGMYYLRTRPAANPIQFTLNKEKLKDKEKVSKEEEEKERNTAAMVCSLENRDECLMCGS
B11: sp¦P04083¦ANXA1_HUMAN (protein, UniProt P04083 2-346, looked up)
Annexin A1: AMVSEFLKQAWFIENEEQEYVQTVKSSKGGPGSAVSPYPTFNPSSDVAALHKAIMVKGVDEATIIDILTKRNNAQRQQIKAAYLQETGKPLDETLKKALTGHLEEVVLALLKTPAQFDADELRAAMKGLGTDEDTLIEILASRTNKEIRDINRVYREELKRDLAKDITSDTSGDFRNALLSLAKGDRSEDFGVNEDLADSDARALYEAGERRKGTDVNVFNTILTTRSYPQLRRVFQKYTKYSKHDMNKVLDLELKGDIEKCLTAIVKCATSKPAFFAEKLHQAMKGVGTRHKALIRIMVSRSEIDMNDIKAFYQKMYGISLCQAILDETKGDYEKILVALCGGN
B12: sp¦P52789¦HXK2_HUMAN (protein, UniProt P52789 1-917, looked up)
Hexokinase-2: MIASHLLAYFFTELNHDQVQKVDQYLYHMRLSDETLLEISKRFRKEMEKGLGATTHPTAAVKMLPTFVRSTPDGTEHGEFLALDLGGTNFRVLWVKVTDNGLQKVEMENQIYAIPEDIMRGSGTQLFDHIAECLANFMDKLQIKDKKLPLGFTFSFPCHQTKLDESFLVSWTKGFKSSGVEGRDVVALIRKAIQRRGDFDIDIVAVVNDTVGTMMTCGYDDHNCEIGLIVGTGSNACYMEEMRHIDMVEGDEGRMCINMEWGAFGDDGSLNDIRTEFDQEIDMGSLNPGKQLFEKMISGMYMGELVRLILVKMAKEELLFGGKLSPELLNTGRFETKDISDIEGEKDGIRKAREVLMRLGLDPTQEDCVATHRICQIVSTRSASLCAATLAAVLQRIKENKGEERLRSTIGVDGSVYKKHPHFAKRLHKTVRRLVPGCDVRFLRSEDGSGKGAAMVTAVAYRLADQHRARQKTLEHLQLSHDQLLEVKRRMKVEMERGLSKETHASAPVKMLPTYVCATPDGTEKGDFLALDLGGTNFRVLLVRVRNGKWGGVEMHNKIYAIPQEVMHGTGDELFDHIVQCIADFLEYMGMKGVSLPLGFTFSFPCQQNSLDESILLKWTKGFKASGCEGEDVVTLLKEAIHRREEFDLDVVAVVNDTVGTMMTCGFEDPHCEVGLIVGTGSNACYMEEMRNVELVEGEEGRMCVNMEWGAFGDNGCLDDFRTEFDVAVDELSLNPGKQRFEKMISGMYLGEIVRNILIDFTKRGLLFRGRISERLKTRGIFETKFLSQIESDCLALLQVRAILQHLGLESTCDDSIIVKEVCTVVARRAAQLCGAGMAAVVDRIRENRGLDALKVTVGVDGTLYKLHPHFAKVMHETVKDLAPKCDVSFLQSEDGSGKGAALITAVACRIREAGQR

test system: human HL60 cells; experiment: SWATH-MS proteomics, differential protein representation, akirin2 KO vs WT HL60 cells; type: cell-based; details: SWATH-MS, akirin2 KO vs WT HL60 cells; over-represented in KO
Outline: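 WT and akirin2 KO HL60 lysates (150 µg, n=3 biological replicates) were FASP trypsin-digested and desalted. A spectral library was built by IDA from 3 µg digests, then 5 µg per sample went to variable-window SWATH DIA over a 120-min 5–30% acetonitrile gradient. Identifications were accepted at 1% global FDR, with total-area-sum normalization.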

Compared with B1, B2 is lower in “Fold Change” value: 5.464 for the first, 1.561 for the second.

First: B3
Second: B4
The “Fold Change” value of the first is higher: 1.558 for the first, 1.544 for the second.

Going from B5 to B6, the “Fold Change” value falls from 1.543 to 1.5342.

First: B7
Second: B8
The “Fold Change” value of the first is higher: 1.53 for the first, 1.523 for the second.

Going from B9 to B10, the “Fold Change” value falls from 1.517 to 1.511.

First: B11
Second: B12
The “Fold Change” value of the first is higher: 1.503 for the first, 1.502 for the second.

Going from B1 to B2, the “Log (Fold Change)” value falls from 0.7375 to 0.1935.

B3 and B4 are within 0.2 log units of each other in “Log (Fold Change)” value: 0.1926 for the first, 0.1886 for the second.

B5 and B6 are within 0.2 log units of each other in “Log (Fold Change)” value: 0.1885 for the first, 0.1859 for the second.

B7 and B8 are within 0.2 log units of each other in “Log (Fold Change)” value: 0.1848 for the first, 0.1827 for the second.

B9 and B10 are within 0.2 log units of each other in “Log (Fold Change)” value: 0.1809 for the first, 0.1792 for the second.

B11 and B12 are within 0.2 log units of each other in “Log (Fold Change)” value: 0.1771 for the first, 0.1767 for the second.
